The target of assay [1] is T1, human CD3 on Jurkat cells (human, UniProt P09693 23-182; P04234 22-171; P07766 23-207).
T1 construct: GenBank NP_000064.1, NP_000723.1, NP_000724.1
Nature of the assay: flow cytometry on Jurkat cells. The essentials:
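Jurkat cells (2.5E5 per condition) incubated with bispecific molecule in PBS/2% FBS on ice for 20 min, then detected with PE-labelled anti-human Fc (1:500, 20 min on ice). Cells fixed in 2% paraformaldehyde and bound antibody measured by flow cytometry.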
A general note: A flow cytometer gives signals particle by particle.

Assay [2] has as its target T2, human ROR1 on cells (human, UniProt Q01973 30-937). Nature of the assay: cell-based or functional assay.
Assay [3] addresses T3, soluble biotinylated human ROR1 extracellular domain (human, UniProt Q01973 30-406, biotinylated with EZ-Link Sulfo-NHS-LC-Biotin at a 1:5 molar ratio).
T3 construct: Acro Biosystems cat; whole entry named; also called b-ROR1; soluble b-ROR1
Nature of the assay: ELISA, captured construct, biotinylated ROR1 titrated.

For assay [4], the target named is T2, human ROR1 on cells. Nature of the assay: flow cytometry, ROR1-transfected MEC cells, 30 µg/mL. As for the experimental part: Internalization of bispecific binding molecules was measured using a pulse-chase methodology that quantitates non-internalized, cell surface antibody at 0, 30, 60, 120, 180, and 240 minutes using flow cytometry. ROR1-transfected MEC cells were washed with cold PBS and resuspended at 1×10⁷ per mL in cold incubation buffer (RPMI with 2% FBS—Fisher/Gibco cat. #16140071). Then, 3.5×10⁶ cells were aliquoted to microcentrifuge tubes for each bispecific construct tested. An equal volume (350 μL) of bispecific binding molecule was combined with the cells to make a final concentration of 30 μg/mL. […] Cells and antibody were incubated on ice for 20 minutes, washed five times with 1 mL of cold FACS buffer (PBS with 2% FBS), and resuspended in 1.4 mL of incubation buffer. Subsequently, the samples were incubated at 37° C. for 0, 30, 60, 120, 180, and 240 minutes after which time 200 μL of each sample was transferred to ice to halt internalization.
Samples for each construct and timepoint were split in half (100 μL each) and spun down. Half of the samples were resuspended in 100 μL secondary antibody (goat anti-human IgG-PE, Fc-gamma specific—eBiosciences cat. #12-4998) to detect bound bispecific constructs. The other half was stained with 100 μL cocktail of UC961-PE and 4A5-AlexaFluor647. […] Subsequently, fixed cells were washed once with FACS buffer and analyzed.

In assay [5] the target is T4, recombinant human ROR1 extracellular domain (human, UniProt Q01973 30-406).
T4 construct: Bought (Acro Biosystems cat. R01-H522Y); whole entry named; also called ROR1-ECD; immobilized ROR1
T4 sequence (Q01973 30-406 limits assumed): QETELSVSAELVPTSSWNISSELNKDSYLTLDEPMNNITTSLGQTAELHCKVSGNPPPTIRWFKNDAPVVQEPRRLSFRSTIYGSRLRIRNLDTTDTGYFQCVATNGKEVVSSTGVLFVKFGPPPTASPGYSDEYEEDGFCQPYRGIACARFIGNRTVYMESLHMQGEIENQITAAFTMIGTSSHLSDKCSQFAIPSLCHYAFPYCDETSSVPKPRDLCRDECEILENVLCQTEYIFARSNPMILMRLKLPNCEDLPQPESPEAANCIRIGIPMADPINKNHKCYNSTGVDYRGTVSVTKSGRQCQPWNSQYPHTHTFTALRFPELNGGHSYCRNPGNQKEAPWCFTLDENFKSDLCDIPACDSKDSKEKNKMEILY
Nature of the assay: ELISA, immobilised ROR1 ECD, construct titrated. In general terms: An ELISA detects its analyte on a solid surface through an enzyme-linked reagent.

Several values for one entry are separate records, joined by “and”; a condition that tells them apart may be missing. Equal values may be shown once.

T2 sequence (Q01973 30-937 limits assumed): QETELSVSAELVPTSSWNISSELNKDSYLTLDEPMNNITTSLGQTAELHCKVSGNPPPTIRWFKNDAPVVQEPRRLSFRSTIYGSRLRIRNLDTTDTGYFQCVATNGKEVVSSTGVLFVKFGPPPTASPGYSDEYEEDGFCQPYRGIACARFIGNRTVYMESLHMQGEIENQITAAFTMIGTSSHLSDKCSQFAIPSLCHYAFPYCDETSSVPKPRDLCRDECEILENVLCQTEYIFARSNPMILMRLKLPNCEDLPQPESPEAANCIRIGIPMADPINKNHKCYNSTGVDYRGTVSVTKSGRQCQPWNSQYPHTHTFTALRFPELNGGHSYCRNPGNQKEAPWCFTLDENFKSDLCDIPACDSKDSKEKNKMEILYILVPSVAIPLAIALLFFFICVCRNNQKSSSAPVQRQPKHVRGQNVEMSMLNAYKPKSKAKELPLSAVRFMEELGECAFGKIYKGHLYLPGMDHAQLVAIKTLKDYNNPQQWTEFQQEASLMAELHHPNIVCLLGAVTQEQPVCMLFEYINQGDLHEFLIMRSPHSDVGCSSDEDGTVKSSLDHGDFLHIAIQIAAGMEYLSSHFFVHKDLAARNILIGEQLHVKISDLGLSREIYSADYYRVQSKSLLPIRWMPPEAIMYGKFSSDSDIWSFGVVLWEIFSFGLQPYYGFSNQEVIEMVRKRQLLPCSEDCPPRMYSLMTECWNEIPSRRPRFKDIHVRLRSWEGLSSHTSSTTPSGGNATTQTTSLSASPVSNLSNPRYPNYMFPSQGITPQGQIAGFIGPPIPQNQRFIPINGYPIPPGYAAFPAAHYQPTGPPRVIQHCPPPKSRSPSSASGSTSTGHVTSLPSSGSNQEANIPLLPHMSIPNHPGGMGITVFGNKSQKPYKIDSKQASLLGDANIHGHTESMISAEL
T3 sequence (Q01973 30-406 limits assumed): as the sequence (Q01973 30-406 limits assumed) above
T1 sequence (P09693 23-182 limits assumed, chain 1 of 3): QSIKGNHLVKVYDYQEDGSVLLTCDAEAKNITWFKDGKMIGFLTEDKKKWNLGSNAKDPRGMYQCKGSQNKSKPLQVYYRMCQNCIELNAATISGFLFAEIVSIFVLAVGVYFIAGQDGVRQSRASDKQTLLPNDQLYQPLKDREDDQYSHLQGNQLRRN
T1 sequence (P04234 22-171 limits assumed, chain 2 of 3): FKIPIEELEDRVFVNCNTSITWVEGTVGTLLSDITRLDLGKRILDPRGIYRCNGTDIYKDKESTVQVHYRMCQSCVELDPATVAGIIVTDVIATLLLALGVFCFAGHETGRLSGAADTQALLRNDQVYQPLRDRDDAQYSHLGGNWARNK
T1 sequence (P07766 23-207 limits assumed, chain 3 of 3): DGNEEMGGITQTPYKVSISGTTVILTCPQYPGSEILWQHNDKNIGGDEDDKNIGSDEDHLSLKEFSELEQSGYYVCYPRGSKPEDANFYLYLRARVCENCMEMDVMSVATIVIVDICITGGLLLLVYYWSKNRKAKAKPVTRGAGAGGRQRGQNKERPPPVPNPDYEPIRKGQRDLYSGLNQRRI

B1: Bispecific construct 13 (bispecific antibody, human IgG1, kappa)
heavy 1: not shown
heavy 2: QVQLVQSGGGVVQPGRSLRLSCKASGYTFTRYTMHWVRQAPGKGLEWIGYINPSRGYTNYNQKVKDRFTISRDNSKNTLYLQMDSLRAEDTAVYYCARYYDDHYSLDYWGQGTTVTVSSGGGGSGGGGSGGGGSGGGGSDIQMTQSPSSLSASVGDRVTITCSASSSVSYMNWYQQKPGKAPKRWIYDTSKLASGVPSRFSGSGSGTDFTFTISSLQPEDIATYYCQQWSSNPFTFGQGTKLEIKEPKSSDKTHTCPPCPAPEAAGAPSVFLFPPKPKDTLMISRTPEVTCVVVDVSHEDPEVKFNWYVDGVEVHNAKTKPREEQYNSTYRVVSVLTVLHQDWLNGKEYKCKVSNKALPAPIEKTISKAKGQPREPQVYTLPPSRDELTKNQVSLSCAVKGFYPSDIAVEWESNGQPENNYKTTPPVLDSDGSFFLVSKLTVDKSRWQQGNVFSCSVMHEALHNHYTQKSLSLSPGK
light: DIVMTQTPLSLPVTPGEPASISCRASKSISKYLAWYQQKPGQAPRLLIYSGSTLQSGIPPRFSGSGYGTDFTLTINNIESEDAAYYFCQQHDESPYTFGEGTKVEIKRTVAAPSVFIFPPSDEQLKSGTASVVCLLNNFYPREAKVQWKVDNALQSGNSQESVTEQDSKDSTYSLSSTLTLSKADYEKHKVYACEVTHQGLSSPVTKSFNRGEC
notes: ROR1 arm Ab1; CD3 valency 1, ROR1 valency 1
Broadly, the Kd is the constant that tells how readily two partners part at equilibrium. On to B1, for which the binding result in assay [1] is given as “binds”. Besides, the “EC50, LDH release, ROR1-transfected MEC” value in the assay with human ROR1 on cells [2] was 12 ng/mL and 96 pM. Besides, in the assay with human ROR1 on cells [2], the “Max. LDH Release, ROR1-transfected MEC” value came out at 46%. Further, the equilibrium dissociation constant (Kd) in assay [3] was 0.226 nM; in assay [5] it was 0.194 nM. The “binding extent relative to the saturated MFI of constructs 1 and 7 at time 0” value in the assay with human ROR1 on cells [4] is roughly 80%.

Values taken from patent US20220227866A1 (VELOSBIO, published 2022).
